Results taken from US20160009789A1.

Biological target: Du156.12
Test: ELISA

Row | Substance | EC50 [µg/mL]
1 | VRC01 Heavy chain: A56G | 0.101
2 | VRC01 Heavy chain: I30T | 0.063
3 | VRC01 Heavy chain: K52N | 0.056
4 | VRC01 Heavy chain: P62K | 0.066
5 | VRC01 Heavy chain: R53N | 0.063
6 | VRC01 Heavy chain: R61Q | 0.086
7 | VRC01 Heavy chain: T33Y | 0.048
8 | VRC01 Heavy chain: V57T | 0.164
9 | VRC01 Heavy chain: V73T | 0.097
10 | VRC01 Heavy chain: Y74S | 0.071
11 | VRC01 Light chain: Y30S | 0.196

Biological target: Du156.12
Test: ELISA; deglycosylated

Row | Substance | EC50 [µg/mL]
12 | Deglycosylated VRC01 | 0.05

Biological target: HXBc2
Test: ELISA; deglycosylated

Row | Substance | EC50 [µg/mL]
13 | Deglycosylated VRC01 | 0.045
